Target: NP:WT-C-His (nucleoprotein) (Influenza A virus A/Puerto Rico/8/1934 …, UniProt P03466 1-498)
Assay: BLI

NP:WT-C-His (nucleoprotein), sequence (P03466 whole entry): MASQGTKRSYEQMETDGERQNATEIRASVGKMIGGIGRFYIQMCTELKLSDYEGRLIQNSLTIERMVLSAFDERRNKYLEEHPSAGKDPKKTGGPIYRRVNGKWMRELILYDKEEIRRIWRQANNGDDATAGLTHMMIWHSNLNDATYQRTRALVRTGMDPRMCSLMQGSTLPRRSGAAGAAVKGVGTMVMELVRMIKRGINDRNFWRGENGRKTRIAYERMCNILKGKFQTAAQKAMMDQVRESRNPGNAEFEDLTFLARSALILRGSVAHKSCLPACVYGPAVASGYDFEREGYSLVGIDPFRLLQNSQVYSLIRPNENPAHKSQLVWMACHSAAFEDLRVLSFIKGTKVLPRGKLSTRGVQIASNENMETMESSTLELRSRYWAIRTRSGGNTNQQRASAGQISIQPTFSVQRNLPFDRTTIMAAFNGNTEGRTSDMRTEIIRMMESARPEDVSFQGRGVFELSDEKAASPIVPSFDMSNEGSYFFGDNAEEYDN

B1: 24nt ssRNA (ssRNA)
RNA: UUUGUUACACACACACACGCUGUG
B1 was tested, and the Kd was 2.48 ± 0.091 nM.

Reference: publication doi:10.1101/2022.01.09.475567
